Earlier results, collected in PMC7556843.

Legend:
[1] = biological target: linear diubiquitin (Ub2) (Homo sapiens) (UniProt P0CG47)
[2] = biological target: linear tetraubiquitin (Ub4) (Homo sapiens) (UniProt P0CG47)

Chain of NEMO 242-419 (Q9Y6K9 242-419): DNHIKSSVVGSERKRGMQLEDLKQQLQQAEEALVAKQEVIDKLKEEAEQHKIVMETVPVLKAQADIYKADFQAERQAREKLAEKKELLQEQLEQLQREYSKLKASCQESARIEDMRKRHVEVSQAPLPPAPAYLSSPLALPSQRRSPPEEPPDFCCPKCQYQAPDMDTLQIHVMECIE

NEMO 242-419 (from UniProt Q9Y6K9)
Kd [1]: 3000 nM | Kd [2]: 300 nM
